Patent US20210389324

Experiments:
CFP-SFVp12-YFP 11:6 = molecular target: T1, CFP-SFVp12-YFP 11:6
T1 chain: DVEELEYHAGAGVVETP

CFP-SFVp12-YFP 19:6 = molecular target: T2, CFP-SFVp12-YFP 19:6
T2 chain: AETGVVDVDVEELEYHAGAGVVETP

CFP-FOXG1-YFP = molecular target: T3, CFP-FOXG1-YFP
T3 chain: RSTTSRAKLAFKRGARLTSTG

CFP-NT5M-YFP = molecular target: T4, CFP-NT5M-YFP
T4 chain: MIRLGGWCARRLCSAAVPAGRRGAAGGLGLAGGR

CFP-SFRP1-YFP = molecular target: T5, CFP-SFRP1-YFP
T5 chain: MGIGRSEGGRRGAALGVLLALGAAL

CFP-SFRP2-YFP = molecular target: T6, CFP-SFRP2-YFP
T6 chain: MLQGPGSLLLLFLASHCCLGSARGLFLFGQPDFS

CFP-SFRP4-YFP = molecular target: T7, CFP-SFRP4-YFP
T7 chain: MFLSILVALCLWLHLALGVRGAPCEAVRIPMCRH

B1: Recombinant CHIKV nsP2 protease (protein)
chain: SNAFQNKANVCWAKSLVPILETAGIKLNDRQWSQIIQAFKEDKAYSPEVALNEICTRMYGVDLDSGLFSKPLVSVYYADNHWDNRPGGKMFGFNPEAASILERKYPFTKGKWNINKQICVTTRRIEDFNPTTNIIPVNRRLPHSLVAEHRPVKGERMEWLVNKINGHHVLLVSGYNLALPTKRVTWVAPLGVRGADYTYNLELGLPATLGRYDLVVINIHTPFRIHHYQQCVDHAMKLQMLGGDSLRLLKPGGSLLIRAYGYADRTSERVICVLGRKFRSSRALKPPCVTSNTEMFFLFSNFDNGRRNFTTHVMNNQLNAAFVG
cleavage of CFP-YFP substrate (CFP-SFVp12-YFP 11:6): CHIKV and VEEV nsP2 cysteine protease
cleavage of CFP-YFP substrate (CFP-SFVp12-YFP 19:6): CHIKV and VEEV nsP2 cysteine protease

B2: Recombinant ZIKV ns2B/ns3 Protease (protein)
chain: MGSSHHHHHHSSGLVPRGSHMVDMYIERAGDITWEKDAEVTGNSPRLDVALDESGDFSLVEDDGPPMAGGGGSGGGGSGALWDVPAPKEVKKGETTDGVYRVMTRGLLGSTQVGVGVMQEGVFHTMWHVTKGSALRSGEGRLDPYWGDVKQDLVSYSGPWKLDAAWDGHSEVQLLAVPPGERARNIQTLPGIFKTKDGDIGAVALDYPAGTSGSPILDKSGRVIGLYGNGVVIKNGSYVSAITQGRR
cleavage of CFP-YFP substrate (CFP-FOXG1-YFP): ZIKV ns2B-ns3 protease
cleavage of CFP-YFP substrate (CFP-NT5M-YFP): ZIKV ns2B-ns3 protease
cleavage of CFP-YFP substrate (CFP-SFRP1-YFP): ZIKV ns2B-ns3 protease
cleavage of CFP-YFP substrate (CFP-SFRP2-YFP): Control, not cleaved by ZIKV ns2B-ns3 protease
cleavage of CFP-YFP substrate (CFP-SFRP4-YFP): Control, not cleaved by ZIKV ns2B-ns3 protease
